We go through five molecules from patent US20250381225A1 (DEVELOPMENT CENTER FOR BIOTECHNOLOGY, published 2025).

In test [1] the target is human PD-1 on PD-1 Effector Cells (Jurkat T cells) (human, UniProt Q15116 25-288). In words: cell-based or functional assay.
For the next test, the target named is T1, recombinant PD-1 protein (UniProt Q15116 25-167, limits assumed).
T1 construct: It may or may not be the same reagent as PD1-hFc
In words: ELISA, recombinant PD-1 coated at 0.1 ug/well, serially diluted antibody. On the procedure: Antibodies of the invention were evaluated for specific binding to PD-1 using an enzyme-linked immunosorbent assay (ELISA). Briefly, recombinant PD-1 protein was immobilized on a 96-well ELISA plate at 0.1 μg/well. The chimeric anti-human PD-1 2B6 antibody was serially diluted and incubated with the coated PD-1, followed by detection with a horseradish peroxidase (HRP)-conjugated goat anti-mouse IgG secondary antibody. The binding was visualized using 3,3′,5,5′-tetramethylbenzidine (TMB) as a substrate, and the optical density (OD) was measured at 405 nm to assess the binding activity.

In test [2] the target is T2, PD1-hFc (UniProt Q15116 25-167).
T2 construct: ELISA coat at 1 ug/ml; not shown: hFc (human Fc)
T2 sequence (Q15116 25-167): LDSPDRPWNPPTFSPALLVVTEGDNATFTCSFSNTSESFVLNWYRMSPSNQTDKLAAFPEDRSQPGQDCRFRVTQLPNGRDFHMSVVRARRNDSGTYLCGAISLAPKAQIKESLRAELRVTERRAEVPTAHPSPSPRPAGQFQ
Put plainly: ELISA on coated PD1-hFc, anti-human kappa HRP, one site-specific binding fit. How it is done:
ELISA plates were coated with PD1-hFc (1 ug/ml) and blocked with blocking buffer (5% milk dissolved in PBS). The antibodies from 66.67 nM to […] dilute (4× fold dilution) were then added to the plates. The binding affinity of tested antibody to PD1-hFc was determined via adding goat anti-human KAPPA HRP IgG (1:3,000 dilution), and binding curve and KD were determined by software using one site-specific binding for nonlinear fit methods.
(An ELISA detects its analyte on a solid surface through an enzyme-linked reagent.)

Test [3] addresses T2, PD1-hFc. In words: ELISA on coated PD1-hFc; scFv-Fc expressed in FreeStyle 293 cells.
Test [4] deals with T2, PD1-hFc. Put plainly: ELISA on PD-1; protein purified from supernatant of 293T cells transfected with the CAR plasmid. How it is done: To evaluate the expression of the present CAR construct, the plasmid encoding the CAR molecule was transfected into 293T cells. The protein was harvested from the supernatant of the cultured cells, followed by purifying and quantifying via measuring OD260/280. On the other hand, the binding affinity of the purified protein towards PD-1 was determined by ELISA.

Residue numbers refer to the chain shown, from its start.

As usually defined, the Kd is the constant that tells how readily two partners part at equilibrium.

Sequence of human PD-1 on PD-1 Effector Cells (Jurkat T cells) (Q15116 25-288): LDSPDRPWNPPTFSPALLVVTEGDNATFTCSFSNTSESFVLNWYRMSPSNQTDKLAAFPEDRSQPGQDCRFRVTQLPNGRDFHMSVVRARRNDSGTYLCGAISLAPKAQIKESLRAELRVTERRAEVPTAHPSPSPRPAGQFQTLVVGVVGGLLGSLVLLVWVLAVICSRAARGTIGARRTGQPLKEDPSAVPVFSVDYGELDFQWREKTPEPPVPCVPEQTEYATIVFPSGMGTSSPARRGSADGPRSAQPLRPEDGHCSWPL
T1 sequence (Q15116 25-167 limits assumed): as the sequence (Q15116 25-167) above

B1: chimeric anti-human PD-1 2B6 antibody (antibody, V domains shown)
VH: EVKLVESGGGLVKPGGSLKLSCAAAGFTFSSYTMSWVRQTPAKRLEWVATISGGGANIYYPDSVKGRFTISRDNARNTLYLQMSSLRSEDTAMYYCVSPYYAIDFWGQGTSVTVSS
VL: DTVMTQSDKFMSTSVGDRVSITCKASQDVGSAVAWYQQKPGQSPKLLIYWASTRHTGVPDRFTGSGSGTDFTLTISNVQSEDLADYFCQQYSTYTWTFGGGTKLEIK
notes: also called mAb 2B6; M-M
As to B1, in test [1], the “NFAT-RE-mediated luminescence (PD-1/PD-L1 Blockade Bioassay), EC50” value was determined as 3.88 nM. In addition, the figures for the Kd in the test with recombinant PD-1 protein and with PD1-hFc [2] were 0.809 nM and 0.495 nM, respectively.

B2: recombinant humanized 2B6 HuB1-scFv-Fc (Fc fusion)
scFv: EVQLVESGGGLVQPGGSLRLSCAASGFTFSSYTMSWVRQAPGKGLEWVATISGGGANIYYPDSVKGRFTISRDNSKNTLYLQMNSLRAEDTAVYYCVSPYYAIDFWGQGTLVTVSSGGGGSGGGGSGGGGSDIQMTQSPSSLSASVGDRVTITCKASQDVGSAVAWYQQKPGKAPKLLIYWASTRHTGVPSRFSGSGSGTDFTLTISSLQPEDFATYYCQQYSTYTWTFGQGTKVEIK
notes: Both carry the same printed name and are kept as one molecule; also called 286 HuB1-scFv-Fc; PD-1^2B6 scFv-Fc; not shown: lim
Turning to B2, the dissociation constant (Kd) worked out at 2.58 nM in the test with PD1-hFc [3] and 1.75 nM with PD1-hFc [4].

B3: humanized antibody 2B6 HdB1 Hd (antibody, V domains shown)
VH: EVQLVESGGGLVQPGGSLRLSCKASGFTFSSYTMSWVRQAPGKGLEWVATISGGGANIYYPDSVKGRFTISRDNSKNTLYLQMNSLRAEDTAVYYCVSPYYAIDFWGQGTLVTVSS
VL: DIQMTQSPSSLSASVGDRVTITCKASQDVGSAVAWYQQKPGKAPKLLIYWASTRHTGVPSRFSGSGSGTDFTLTISSLQPEDFATYYCQQYSTYTWTFGQGTKVEIK
notes: Heavy chain HdB1 with light chain Hd
In turn, B3 yielded a Kd with PD1-hFc [2] of 0.368 nM.

B4: humanized 2B6 4D5 (2B6-HdHd) (antibody, V domains shown)
VH: B3 VH with N74D, V97A, S98R
VL: B3 VL
notes: Heavy chain Hd with light chain Hd
As for B4, the Kd with PD1-hFc [2] amounted to 179 nM.

B5: humanized antibody 2B6 HuB1 Hd (antibody, V domains shown)
VH: B3 VH with K23A
VL: B3 VL
notes: Heavy chain HuB1 with light chain Hd
In turn, B5 gave a Kd with PD1-hFc [2] of 0.403 nM.
